Experimental data as given in patent US9873895B2, “Production of 1,3-dienes by enzymatic conversion of 3-hydroxyalk 4-enoates and/or 3-phosphonoxyalk-4-enoates” (Scientist of Fortune S.A., priority 2011, dated 2018).

Test: 1,3-butadiene production from 3-phosphonoxypent-4-enoate by using a terpene synthase (headspace GC-FID)
Type: biochemical
Conditions: 5 mg/ml enzyme, 50 mM 3-phosphonoxypent-4-enoate, 37° C., 24 hours
Protocol: The reactions were performed in sealed vials. The total volume was 0.5 ml. Final concentrations were 5 mg/ml enzyme, 50 mM 3-phosphonoxypent-4-enoate, 4 mM DTT, 50 mM MgCl2, 50 mM KCl, 50 mM Tris-HCl buffer pH 7.5. The incubation was carried out at 37° C. for 24 h. The control reactions without enzyme or without substrate were performed in parallel under the same conditions.
One ml of the gaseous phase of the reaction was collected and analyzed by Gas-Chromatography with Flame Ionization Detector (GC-FID) ((Brucker GC 450) using a RTX-alumina column (Varian), with an isocratic elution at 130° C. and nitrogen as carrier gas at flow rate of 1.5 ml/min. The retention of commercial 1,3-butadiene (Sigma) in these conditions was 7.4 min.

B1: isoprene synthase from Pueraria montana var. lobata: purified His-tagged isoprene synthase (terpene synthase), Uniprot Q6EJ97, SEQ ID NO: 30, expressed in E. coli (protein, listed as Pueraria montana)
chain: MCATSSQFTQITEHNSRRSANYQPNLWNFEFLQSLENDLKVEKLEEKATKLEEEVRCMINRVDTQPLSLLELIDDVQRLGLTYKFEKDIIKALENIVLLDENKKNKSDLHATALSFRLLRQHGFEVSQDVFERFKDKEGGFSGELKGDVQGLLSLYEASYLGFEGENLLEEARTFSITHLKNNLKEGINTKVAEQVSHALELPYHQRLHRLEARWFLDKYEPKEPHHQLLLELAKLDFNMVQTLHQKELQDLSRWWTEMGLASKLDFVRDRLMEVYFWALGMAPDPQFGECRKAVTKMFGLVTIIDDVYDVYGTLDELQLFTDAVERWDVNAINTLPDYMKLCFLALYNTVNDTSYSILKEKGHNNLSYLTKSWRELCKAFLQEAKWSNNKIIPAFSKYLENASVSSSGVALLAPSYFSVCQQQEDISDHALRSLTDFHGLVRSSCVIFRLCNDLATSAAELERGETTNSIISYMHENDGTSEEQAREELRKLIDAEWKKMNRERVSDSTLLPKAFMEIAVNMARVSHCTYQYGDGLGRPDYATENRIKLLLIDPFPINQLMYV
modifications: His tag; var. lobata
ratio of butadiene produced in the presence of isoprene synthase versus in the absence of enzyme (butadiene peak areas): about 5 fold
